# Test results: article PMC10082787, “The IgG4 hinge with CD28 transmembrane domain improves VHH-based CAR T cells targeting a membrane-distal epitope of GPC1 in pancreatic cancer” (Nature Communications, 2023)
# T1: GPC1 peptide 14 (Homo sapiens, UniProt P35052)
# T1 construct: peptide no; 14 of 53 overlapping GPC1 peptides, 18 amino acids long, 9 overlapped with the adjacent peptide; source: synthetic peptide (Genscript)
# T1 chain: FRDLYSELRLYYRGANLH
# T2: GPC1 peptide 15 (Homo sapiens, UniProt P35052)
# T2 construct: peptide no; 15 of 53 overlapping GPC1 peptides, 18 amino acids long, 9 overlapped with the adjacent peptide; source: synthetic peptide (Genscript)
# T2 chain: LYYRGANLHLEETLAEFW
# T3: GPC1 peptide 53 (Homo sapiens, UniProt P35052)
# T3 construct: peptide no; 53 of 53 overlapping GPC1 peptides, 18 amino acids long, 9 overlapped with the adjacent peptide; source: synthetic peptide (Genscript)
# T3 chain: DGCLDDLCSRKVSRKSSS
# B1: GPC1 protein (negative stain EM) (natural protein)
# chain: DPASKSRSCGEVRQIYGAKGFSLSDVPQAEISGEHLRICPQGYTCCTSEMEENLANRSHAELETALRDSSRVLQAMLATQLRSFDDHFQHLLNDSERTLQATFPGAFGELYTQNARAFRDLYSELRLYYRGANLHLEETLAEFWARLLERLFKQLHPQLLLPDDYLDCLGKQAEALRPFGEAPRELRLRATRAFVAARSFVQGLGVASDVVRKVAQVPLGPECSRAVMKLVYCAHCLGVPGARPCPDYCRNVLKGCLANQADLDAEWRNLLDSMVLITDKFWGTSGVESVIGSVHTWLAEAINALQDNRDTLTAKVIQGCGNPKVNPQGPGPEEKRRRGKLAPRERPPSGTLEKLVSEAKAQLRDVQDFWISLPGTLCSEKMALSTASDDRCWNGMARGRYLPEVMGDGLANQINNPEVEVDITKPDMTIRQQIMQLKIMTNRLRSAYNGNDVDFQDASDDGSGSGSGDGCLDDLCSRKVSRKSSSSRTPLTHALPGLSEQEGQKTS
# notes: glypican-1 protein mixed 1:1 with HM2 Fab or D4-LR for negative stain EM; It may be the His-tagged or the hFc-fused protein of the other experiments
# B2: recombinant human GPC1-hFc protein (Fc fusion)
# chain: B1 chain
# notes: glypican-1, human, fused to human Fc
# B3: clone 1–12-IgG4H-CD28TM CAR (other)
# VH: AVTLDESGGGLQTPGRALSLVCKASGFTFSRYAMYWVRQAPGKGLEFVAGIGNTGRYTGYGSAVKGRATISRDSGQSTVRLQLNNLRAEDTGNYYCAKSVSPYCCDAADIDAWGHGTEVIVST
# VL: ALTQPASVSANPGETVKITCSGGSSGYAYGWYQQKSPGSAPVTLLYSNNNRPSDIPSRFSGSKSGSTATLTITGVQAEDEAVYFCGSVDSSSYAGIFGAGTTLTV
# notes: scFv of the anti-GPC1 mAb clone 1–12; CD28 transmembrane domain (CD28TM); 4-1BB costimulatory domain; intracellular CD3ζ; also called clone 1–12 CAR; source: human T cells from PBMCs, lentivirally transduced; on cells
# B4: D4 dromedary camel VHH nanobody (VHH)
# VHH: QVQLVESGGGLVQPGGSLRLSCVASGYSYSIGYMAWFRQAPGKERAWVASRYTGDGGAVFDDAVKGRFTTSQESAGNTFDLQMDSLKPEDTAMYYCAAKGPGFGRWEYWGRGTQVTVSS
# notes: D4 VHH; His tag used to load the Ni-NTA biosensor; FLAG used for detection in ELISA and flow cytometry; also called D4 antibody; D4 VHH
# B5: HM2 mouse monoclonal antibody (antibody, V domains shown)
# VH: EVQLQQSGAELVRPGASVKLSCTASGFNIKDDYMHWVKQRPEQGLEWIGWIDPENGDTEYASKFQGKATITADTSSNTAYLQLSSLTSEDTAVYYCTRSSVGYWGQGTTLTVSS
# VL: DVVMTQTPLSLPVSLGDQASISCRSSQSLVHSNGNTYLHWYLQKPGQSPKLLIYKVSNRFSGVPDRFSGSGSGTYFTLKISRVEAEDLGVYFCSQRTHVPYTFGGGTKLEIK
# notes: heavy chain of mouse mAb HM2; light chain of mouse mAb HM2; Raised by immunising mice with the C-lobe region of GPC1; also called HM2 mAb; HM2 clone; source: mouse hybridoma; in supernatant and purified
# Columns and labels:
# D4-LR immunotoxin = D4-LR immunotoxin (Camelus dromedarius | Pseudomonas); experiment: negative stain EM; conditions: both partners purified
# D4-CD8H-CD8TM CAR = molecular target: T4, D4-CD8H-CD8TM CAR (Camelus dromedarius | ); experiment: flow cytometry on cells; CAR T cells stained with GPC1-hFc at 5 μg/ml and goat anti-human IgG-PE; conditions: one partner purified
# T4 construct: CD8 hinge (CD8H), 45 amino acids; CD8 transmembrane region (CD8TM); 4-1BB costimulatory domain; intracellular CD3ζ; also called D4 CAR; pMH305; source: human T cells from PBMCs, lentivirally transduced; on cells and in lysate
# D4-CD8H-CD28TM CAR = molecular target: T5, D4-CD8H-CD28TM CAR (Camelus dromedarius | ); experiment: as above; conditions: one partner purified
# T5 construct: CD8 hinge (CD8H), 45 amino acids; CD28 transmembrane domain (CD28TM); 4-1BB costimulatory domain; intracellular CD3ζ; also called pMH402; source: human T cells from PBMCs, lentivirally transduced; on cells and in lysate
# D4-IgG4H-CD8TM CAR = molecular target: T6, D4-IgG4H-CD8TM CAR (Camelus dromedarius | human | ); experiment: as above; conditions: one partner purified
# T6 construct: CD8 transmembrane region (CD8TM); 4-1BB costimulatory domain; intracellular CD3ζ; Dimer by non-reducing western blot; also called pMH382; source: human T cells from PBMCs, lentivirally transduced; on cells and in lysate
# D4-IgG4H-CD28TM CAR = molecular target: T7, D4-IgG4H-CD28TM CAR (Camelus dromedarius | human | ); experiment: as above; conditions: one partner purified
# T7 construct: CD28 transmembrane domain (CD28TM); 4-1BB costimulatory domain; intracellular CD3ζ; Dimer by non-reducing western blot; also called D4-IgG4H only CAR; D4-IgG4H CAR; source: human T cells from PBMCs, lentivirally transduced; on cells and in lysate
# [1] = molecular target: B2; experiment: as above; conditions: one partner purified
# [2] = molecular target: B2; experiment: BLI; Octet RED96; His-tagged D4 loaded on Ni-NTA biosensor, serially diluted human GPC1-hFc in solution; conditions: both partners purified
# GPC1 peptide 14 = molecular target: T1, GPC1 peptide 14; experiment: ELISA; 53 overlapping 18-mer GPC1 peptides coated at 5 μg/ml in PBS overnight; 1 μg/ml of HM2 or D4 added; conditions: both partners purified
# GPC1 peptide 15 = molecular target: T2, GPC1 peptide 15; experiment: as above; conditions: both partners purified
# [3] = molecular target: T8, human glypican-2 (GPC2), recombinant protein (Homo sapiens (Human)., UniProt Q8N158); experiment: ELISA; D4 nanobody at 1 μg/ml on human GPC1 through GPC6 and mouse GPC1 proteins; detected with anti-FLAG-HRP; the legend calls it monoclonal phage ELISA; conditions: both partners purified
# T8 construct: glypican-2, human, recombinant protein coated on ELISA plates; source: bought: R&D Systems
# T8 sequence (Q8N158 24-554): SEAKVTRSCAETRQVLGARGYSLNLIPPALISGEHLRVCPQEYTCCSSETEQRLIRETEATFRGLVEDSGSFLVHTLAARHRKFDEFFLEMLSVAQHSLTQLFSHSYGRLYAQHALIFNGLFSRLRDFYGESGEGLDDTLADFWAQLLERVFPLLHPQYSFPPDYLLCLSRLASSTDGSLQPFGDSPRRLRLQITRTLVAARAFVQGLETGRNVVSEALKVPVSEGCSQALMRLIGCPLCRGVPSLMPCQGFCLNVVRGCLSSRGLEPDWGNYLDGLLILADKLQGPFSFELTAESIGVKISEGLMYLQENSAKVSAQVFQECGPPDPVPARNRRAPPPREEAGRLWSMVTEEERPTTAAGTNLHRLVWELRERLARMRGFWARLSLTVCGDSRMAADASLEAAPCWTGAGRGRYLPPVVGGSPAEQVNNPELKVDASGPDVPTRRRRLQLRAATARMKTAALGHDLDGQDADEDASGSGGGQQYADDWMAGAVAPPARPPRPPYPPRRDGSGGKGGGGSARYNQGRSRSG
# [4] = molecular target: T9, human glypican-3 (GPC3), recombinant protein (Homo sapiens, UniProt P51654); experiment: as above; conditions: both partners purified
# T9 construct: glypican-3, human, recombinant protein coated on ELISA plates; source: bought: R&D Systems
# T9 sequence (P51654 25-580): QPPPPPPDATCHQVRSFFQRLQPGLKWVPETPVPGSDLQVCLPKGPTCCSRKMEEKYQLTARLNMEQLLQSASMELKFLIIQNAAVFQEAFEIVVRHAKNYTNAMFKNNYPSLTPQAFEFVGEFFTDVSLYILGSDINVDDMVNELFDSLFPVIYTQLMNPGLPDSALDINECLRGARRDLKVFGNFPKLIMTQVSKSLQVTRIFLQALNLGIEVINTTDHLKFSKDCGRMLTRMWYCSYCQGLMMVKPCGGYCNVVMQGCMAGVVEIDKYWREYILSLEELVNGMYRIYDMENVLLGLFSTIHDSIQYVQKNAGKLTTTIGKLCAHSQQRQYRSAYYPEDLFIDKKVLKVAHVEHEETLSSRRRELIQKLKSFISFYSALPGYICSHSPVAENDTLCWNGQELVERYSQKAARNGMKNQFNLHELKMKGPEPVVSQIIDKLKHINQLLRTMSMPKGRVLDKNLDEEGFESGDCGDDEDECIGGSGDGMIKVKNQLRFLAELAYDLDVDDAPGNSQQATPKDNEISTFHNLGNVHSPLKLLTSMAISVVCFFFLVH
# [5] = molecular target: T10, human glypican-4 (GPC4), recombinant protein (Homo sapiens, UniProt O75487); experiment: as above; conditions: both partners purified
# T10 construct: glypican-4, human, recombinant protein coated on ELISA plates; source: bought: R&D Systems
# T10 sequence (O75487 19-529): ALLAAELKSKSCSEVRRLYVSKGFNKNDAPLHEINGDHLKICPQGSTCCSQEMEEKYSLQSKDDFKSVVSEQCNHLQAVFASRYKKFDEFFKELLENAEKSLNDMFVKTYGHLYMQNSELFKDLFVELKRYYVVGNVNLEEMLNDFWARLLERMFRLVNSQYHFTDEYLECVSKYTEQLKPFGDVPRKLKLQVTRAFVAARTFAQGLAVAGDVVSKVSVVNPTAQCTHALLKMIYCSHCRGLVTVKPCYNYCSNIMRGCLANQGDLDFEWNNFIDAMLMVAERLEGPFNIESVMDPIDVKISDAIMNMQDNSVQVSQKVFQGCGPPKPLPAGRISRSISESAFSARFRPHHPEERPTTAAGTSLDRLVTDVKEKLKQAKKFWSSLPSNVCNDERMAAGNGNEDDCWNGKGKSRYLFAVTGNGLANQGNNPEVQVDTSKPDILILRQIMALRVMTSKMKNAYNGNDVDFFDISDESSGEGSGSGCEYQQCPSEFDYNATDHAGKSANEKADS
# [6] = molecular target: T11, human glypican-5 (GPC5), recombinant protein (Homo sapiens, UniProt P78333); experiment: as above; conditions: both partners purified
# T11 construct: glypican-5, human, recombinant protein coated on ELISA plates; source: bought: R&D Systems
# T11 sequence (P78333 25-572): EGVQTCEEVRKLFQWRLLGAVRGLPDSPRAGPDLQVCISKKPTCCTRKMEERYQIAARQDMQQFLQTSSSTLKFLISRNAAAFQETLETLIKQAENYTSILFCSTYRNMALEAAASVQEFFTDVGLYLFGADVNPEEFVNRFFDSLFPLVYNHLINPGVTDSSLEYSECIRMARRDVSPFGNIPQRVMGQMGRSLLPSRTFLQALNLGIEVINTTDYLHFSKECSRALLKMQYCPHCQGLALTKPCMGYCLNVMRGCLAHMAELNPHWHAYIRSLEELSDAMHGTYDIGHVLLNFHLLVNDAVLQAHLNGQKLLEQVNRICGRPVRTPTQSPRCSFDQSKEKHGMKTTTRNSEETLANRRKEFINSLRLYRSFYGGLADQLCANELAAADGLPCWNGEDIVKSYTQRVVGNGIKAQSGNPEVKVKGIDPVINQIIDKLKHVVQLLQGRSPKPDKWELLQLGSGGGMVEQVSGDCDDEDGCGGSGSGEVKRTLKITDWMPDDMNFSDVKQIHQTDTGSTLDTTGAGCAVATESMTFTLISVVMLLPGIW
# [7] = molecular target: T12, human glypican-6 (GPC6), recombinant protein (Homo sapiens (Human)., UniProt Q9Y625); experiment: as above; conditions: both partners purified
# T12 construct: glypican-6, human, recombinant protein coated on ELISA plates; source: bought: R&D Systems
# T12 sequence (Q9Y625 24-529): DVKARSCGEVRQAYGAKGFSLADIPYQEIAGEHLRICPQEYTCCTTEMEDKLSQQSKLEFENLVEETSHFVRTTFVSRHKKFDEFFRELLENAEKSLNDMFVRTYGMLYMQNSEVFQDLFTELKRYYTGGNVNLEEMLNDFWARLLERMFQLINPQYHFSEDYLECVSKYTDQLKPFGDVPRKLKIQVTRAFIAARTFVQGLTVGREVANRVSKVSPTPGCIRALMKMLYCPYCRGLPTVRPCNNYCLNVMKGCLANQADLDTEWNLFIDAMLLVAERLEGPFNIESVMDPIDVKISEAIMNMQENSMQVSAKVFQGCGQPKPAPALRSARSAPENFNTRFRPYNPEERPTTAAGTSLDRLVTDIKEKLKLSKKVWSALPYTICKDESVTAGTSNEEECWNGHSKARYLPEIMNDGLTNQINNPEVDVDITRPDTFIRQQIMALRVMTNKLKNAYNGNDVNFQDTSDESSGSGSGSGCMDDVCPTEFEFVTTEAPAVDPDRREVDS
# [8] = molecular target: T13, mouse glypican-1 (GPC1) protein (Mus musculus (Mouse)., UniProt Q9QZF2); experiment: as above; conditions: both partners purified
# T13 construct: glypican-1, mouse, protein used in the ELISA of D4; also called mouse GPC1; murine GPC1
# GPC1 peptide 53 = molecular target: T3, GPC1 peptide 53; experiment: ELISA; 53 overlapping 18-mer GPC1 peptides coated at 5 μg/ml in PBS overnight; 1 μg/ml of HM2 or D4 added; conditions: both partners purified
# His-tagged GPC1 protein = molecular target: T14, His-tagged GPC1 protein (Homo sapiens, UniProt P35052); experiment: BLI; Octet RED96; His-tagged GPC1 immobilised on Ni-NTA biosensor, HM2 in solution; association 600 s, dissociation 1800 s; conditions: both partners purified
# T14 construct: glypican-1, human, His-tagged protein immobilised on the Ni-NTA biosensor; also called human GPC1
# T14 sequence (P35052 whole entry, looked up): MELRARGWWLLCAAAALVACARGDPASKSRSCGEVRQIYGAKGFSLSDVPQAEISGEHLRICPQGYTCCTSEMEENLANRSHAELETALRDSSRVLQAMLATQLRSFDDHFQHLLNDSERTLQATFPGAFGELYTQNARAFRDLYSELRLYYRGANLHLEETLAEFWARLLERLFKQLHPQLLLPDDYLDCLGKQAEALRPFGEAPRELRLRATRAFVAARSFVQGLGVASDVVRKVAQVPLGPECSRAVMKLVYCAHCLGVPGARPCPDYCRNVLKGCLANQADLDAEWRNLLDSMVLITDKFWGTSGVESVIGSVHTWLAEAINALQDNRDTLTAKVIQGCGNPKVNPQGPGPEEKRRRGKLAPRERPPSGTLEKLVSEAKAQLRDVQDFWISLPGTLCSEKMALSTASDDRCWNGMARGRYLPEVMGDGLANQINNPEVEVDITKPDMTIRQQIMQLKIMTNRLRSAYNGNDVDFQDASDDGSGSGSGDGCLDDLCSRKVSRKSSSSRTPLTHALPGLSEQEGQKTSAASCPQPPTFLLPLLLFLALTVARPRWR
# [9] = molecular target: T8, human glypican-2 (GPC2), recombinant …; experiment: ELISA; plates coated with human GPC1 through GPC6; mouse hybridoma supernatant with 1 μg/ml of each mAb; detected with goat anti-mouse IgG-HRP; conditions: one partner purified
# [10] = molecular target: T9, human glypican-3 (GPC3), recombinant …; experiment: as above; conditions: one partner purified
# [11] = molecular target: T10, human glypican-4 (GPC4), recombinant …; experiment: as above; conditions: one partner purified
# [12] = molecular target: T11, human glypican-5 (GPC5), recombinant …; experiment: as above; conditions: one partner purified
# [13] = molecular target: T12, human glypican-6 (GPC6), recombinant …; experiment: as above; conditions: one partner purified
binder,measurement,setting,value
B1,binding result,D4-LR immunotoxin,binds
B2,binding result,D4-CD8H-CD8TM CAR,binds
same,binding result,D4-CD8H-CD28TM CAR,binds
same,binding result,D4-IgG4H-CD8TM CAR,binds
same,binding result,D4-IgG4H-CD28TM CAR,binds
B3,binding result,[1],binds
B4,Kd,[2],0.7 nM
same,binding result,GPC1 peptide 14,binds
same,binding result,GPC1 peptide 15,binds
same,binding result,[3],no binding (tested: 1 μg/ml)
same,binding result,[4],no binding (tested: 1 μg/ml)
same,binding result,[5],no binding (tested: 1 μg/ml)
same,binding result,[6],no binding (tested: 1 μg/ml)
same,binding result,[7],no binding (tested: 1 μg/ml)
same,binding result,[8],binds
B5,binding result,GPC1 peptide 53,binds
same,Kd,His-tagged GPC1 protein,0.4 nM
same,binding result,[9],no binding (tested: 1 μg/ml)
same,binding result,[10],no binding (tested: 1 μg/ml)
same,binding result,[11],no binding (tested: 1 μg/ml)
same,binding result,[12],no binding (tested: 1 μg/ml)
same,binding result,[13],no binding (tested: 1 μg/ml)
